Measured values reported in article PMC6858323, “Multiple conformations facilitate PilT function in the type IV pilus” (Nature Communications, 2019).

B1: PilT^Pa two-hybrid fusion from pKT25::PilT^Pa (wild type) [Pseudomonas aeruginosa] / PilC^Pa two-hybrid fusion from pUT18C::PilC^Pa [Pseudomonas aeruginosa] (parent)
chain 1: MDITELLAFSAKQGASDLHLSAGLPPMIRVDGDVRRINLPPLEHKQVHALIYDIMNDKQRKDFEEFLETDFSFEVPGVARFRVNAFNQNRGAGAVFRTIPSKVLTMEELGMGEVFKRVSDVPRGLVLVTGPTGSGKSTTLAAMLDYLNNTKYHHILTIEDPIEFVHESKKCLVNQREVHRDTLGFSEALRSALREDPDIILVGEMRDLETIRLALTAAETGHLVFGTLHTTSAAKTIDRVVDVFPAEEKAMVRSMLSESLQSVISQTLIKKIGGGRVAAHEIMIGTPAIRNLIREDKVAQMYSAIQTGGSLGMQTLDMCLKGLVAKGLISRENAREKAKIPENF
chain 2: MLVKAHLRKQGINPLKVRKKGISLLGAGKKVKPMDIALFTRQMATMMGAGVPLLQSFDIIGEGFDNPNMRKLVDEIKQEVSSGNSLANSLRKKPQYFDELYCNLVDAGEQSGALENLLDRVATYKEKTESLKAKIRKAMTYPIAVIIVALIVSAILLIKVVPQFQSVFQGFGAELPAFTQMVVNLSEFLQEWWLAVIVGVGAIGFTFKELHKRSKKFRDTLDRTILKLPIFGGIVYKSAVARYARTLSTTFAAGVPLVDALDSVSGATGNIVFKNAVSKIKQDVSTGMQLNFSMRTTSVFPNMAIQMTAIGEESGSLDEMLSKVASYYEEEVDNAVDNLTTLMEPMIMAVLGVLVGGLIVAMYLPIFQLGNVVG
B2: PilT^Pa two-hybrid fusion from pKT25::PilT^Pa (wild type) [Pseudomonas aeruginosa] / PilT^Pa two-hybrid fusion from pUT18C::pilT [Pseudomonas aeruginosa] (parent)
chain 1: B1 chain 1
chain 2: B1 chain 1

Variants of: B1
Assay: bacterial two-hybrid (BACTH), β-galactosidase activity
Conditions: with PilC^Pa two-hybrid fusion from pUT18C::PilC^Pa [Pseudomonas aeruginosa]; E. coli BTH101; n = 3; parent: 650; read off a plot

Which response does the source give for chain 1 MDITELLAFSAKQGASDLHLSAGLPPMIRVDGDVRRINLPPLEHKQVHALIYDIMNDKQRKDFEEFLETDFSFEVPGVARFRVNAFNQNRGAGAVFRTIPSKVLTMEELGMGEVFKRVSDVPRGLVLVTGPTGSGKSTTLAAMLDYLNNTKYHHILTIEDPIEFVHESKKCLVNQREVHRDTLGFSEALRSALREDPDIILVGAMRDLETIRLALTAAETGHLVFGTLHTTSAAKTIDRVVDVFPAEEKAMVRSMLSESLQSVISQTLIKKIGGGRVAAHEIMIGTPAIRNLIREDKVAQMYSAIQTGGSLGMQTLDMCLKGLVAKGLISRENAREKAKIPENF [chain 1 E204A] here?
The response was 460 Miller units.

chain 1 MDITELLAFSAKQGASDLHLSAGLPPMIRVDGDVRRINLPPLEHKQVHALIYDIMNDKQRKDFEEFLETDFSFEVPGVARFRVNAFNQNRGAGAVFRTIPSKVLTMEELGMGEVFKRVSDVPRGLVLVTGPTGSGKSTTLAAMLDYLNNTKYHHILTIEDPIEFVHESKKCLVNQREVHRDTLGFSEALRSALREDPDIILVGEMRDLETIRLALTAAETGHLVFGTLATTSAAKTIDRVVDVFPAEEKAMVRSMLSESLQSVISQTLIKKIGGGRVAAHEIMIGTPAIRNLIREDKVAQMYSAIQTGGSLGMQTLDMCLKGLVAKGLISRENAREKAKIPENF [chain 1 H229A] was tested. Which response did it give?
Its response is 650 Miller units.

Variants of: B2
Assay: as above
Conditions: with PilT^Pa two-hybrid fusion from pUT18C::pilT [Pseudomonas aeruginosa]; E. coli BTH101; n = 3; parent: 9.3e+03; read off a plot

Which response does the source give for chain 1 MDITELLAFSAKQGASDLHLSAGLPPMIRVDGDVRRINLPPLEHKQVHALIYDIMNDRQRKDFEEFLETDFSFEVPGVARFRVNAFNQNRGAGAVFRTIPSKVLTMEELGMGEVFKRVSDVPRGLVLVTGPTGSGKSTTLAAMLDYLNNTKYHHILTIEDPIEFVHESKKCLVNQREVHRDTLGFSEALRSALREDPDIILVGEMRDLETIRLALTAAETGHLVFGTLHTTSAAKTIDRVVDVFPAEEKAMVRSMLSESLQSVISQTLIKKIGGGRVAAHEIMIGTPAIRNLIREDKVAQMYSAIQTGGSLGMQTLDMCLKGLVAKGLISRENAREKAKIPENF [chain 1 K58R] here?
Its response is 11000 Miller units.

chain 1 MDITELLAFSAKQGASDLHLSAGLPPMIRVDGDVRRINLPPLEHKQVHALIYDIMNDQQRKDFEEFLETDFSFEVPGVARFRVNAFNQNRGAGAVFRTIPSKVLTMEELGMGEVFKRVSDVPRGLVLVTGPTGSGKSTTLAAMLDYLNNTKYHHILTIEDPIEFVHESKKCLVNQREVHRDTLGFSEALRSALREDPDIILVGEMRDLETIRLALTAAETGHLVFGTLHTTSAAKTIDRVVDVFPAEEKAMVRSMLSESLQSVISQTLIKKIGGGRVAAHEIMIGTPAIRNLIREDKVAQMYSAIQTGGSLGMQTLDMCLKGLVAKGLISRENAREKAKIPENF [chain 1 K58Q] was tested. Which response did it give?
Its response is 10000 Miller units.

For chain 1 MDITELLAFSAKQGASDLHLSAGLPPMIRVDGDVRRINLPPLEHKQVHALIYDIMNDAQRKDFEEFLETDFSFEVPGVARFRVNAFNQNRGAGAVFRTIPSKVLTMEELGMGEVFKRVSDVPRGLVLVTGPTGSGKSTTLAAMLDYLNNTKYHHILTIEDPIEFVHESKKCLVNQREVHRDTLGFSEALRSALREDPDIILVGEMRDLETIRLALTAAETGHLVFGTLHTTSAAKTIDRVVDVFPAEEKAMVRSMLSESLQSVISQTLIKKIGGGRVAAHEIMIGTPAIRNLIREDKVAQMYSAIQTGGSLGMQTLDMCLKGLVAKGLISRENAREKAKIPENF [chain 1 K58A], which response is on record?
The response was 10000 Miller units.

For chain 1 MDITELLAFSAKQGASDLHLSAGLPPMIRVDGDVRRINLPPLEHKQVHALIYDIMNDKQRKDFEEFLETDFSFEVPGVARFRVNAFNQNRGAGAVFRTIPSKVLTMEELGMGEVFKRVSDVPRGLVLVTGPTGSGKSTTLAAMLDYLNNTKYHHILTIEDPIEFVHESKKCLVNQREVHRDTLGFSEALRSALREDPDIILVGEMRDLETIRLALTAAETGHLVFGTLHTTSAAKTIDAVVDVFPAEEKAMVRSMLSESLQSVISQTLIKKIGGGRVAAHEIMIGTPAIRNLIREDKVAQMYSAIQTGGSLGMQTLDMCLKGLVAKGLISRENAREKAKIPENF [chain 1 R239A], which response is on record?
Its response is 11000 Miller units.

Which response does the source give for chain 1 MDITELLAFSAKQGASDLHLSAGLPPMIRVDGDVRRINLPPLEHKQVHALIYDIMNDKQRKDFEEFLETDFSFEVPGVARFRVNAFNQNRGAGAVFRTIPSKVLTMEELGMGEVFKRVSDVPDGLVLVTGPTGSGKSTTLAAMLDYLNNTKYHHILTIEDPIEFVHESKKCLVNQREVHRDTLGFSEALRSALREDPDIILVGEMRDLETIRLALTAAETGHLVFGTLHTTSAAKTIDRVVDVFPAEEKAMVRSMLSESLQSVISQTLIKKIGGGRVAAHEIMIGTPAIRNLIREDKVAQMYSAIQTGGSLGMQTLDMCLKGLVAKGLISRENAREKAKIPENF [chain 1 R123D] here?
The response was 8000 Miller units.

Which response does the source give for chain 1 MDITELLAFSAKQGASDLHLSAGLPPMIRVDGDVRRINLPPLEHKQVHALIYDIMNDKQRKDFEEFLETDFSFEVPGVARFRVNAFNQNRGAGAVFRTIPSKVLTMEELGMGEVFKRVSDVPRGLVLVTGPTGSGKSTTLAAMLDYLNNTKYHHILTIEDPIEFVHESKKCLVNQREVHRDTLGFSEALRSALREDPDIILVGAMRDLETIRLALTAAETGHLVFGTLHTTSAAKTIDRVVDVFPAEEKAMVRSMLSESLQSVISQTLIKKIGGGRVAAHEIMIGTPAIRNLIREDKVAQMYSAIQTGGSLGMQTLDMCLKGLVAKGLISRENAREKAKIPENF [chain 1 E204A] here?
Its response is 8000 Miller units.

With chain 1 MDITELLAFSAKQGASDLHLSAGLPPMIRVDGDVRRINLPPLEHKQVHALIYDIMNDKQRKDFEEFLETDFSFEVPGVARFRVNAFNQNRGAGAVFRTIPSKVLTMEELGMGEVFKRVSDVPRGLVLVTGPTGSGKSTTLAAMLDYLNNTKYHHILTIEDPIEFVHESKKCLVNQREVHRDTLGFSEALRSALREDPDIILVGEMRDLETIRLALTAAETGHLVFGTLHTTSAAKTIDRVVDVFPAEEKAMVRSMLSASLQSVISQTLIKKIGGGRVAAHEIMIGTPAIRNLIREDKVAQMYSAIQTGGSLGMQTLDMCLKGLVAKGLISRENAREKAKIPENF [chain 1 E258A] as the variant, how does the response read?
Its response is 9300 Miller units.

With chain 1 MDITELLAFSAKQGASDLHLSAGLPPMIRVKGDVRRINLPPLEHKQVHALIYDIMNDKQRKDFEEFLETDFSFEVPGVARFRVNAFNQNRGAGAVFRTIPSKVLTMEELGMGEVFKRVSDVPRGLVLVTGPTGSGKSTTLAAMLDYLNNTKYHHILTIEDPIEFVHESKKCLVNQREVHRDTLGFSEALRSALREDPDIILVGEMRDLETIRLALTAAETGHLVFGTLHTTSAAKTIDRVVDVFPAEEKAMVRSMLSESLQSVISQTLIKKIGGGRVAAHEIMIGTPAIRNLIREDKVAQMYSAIQTGGSLGMQTLDMCLKGLVAKGLISRENAREKAKIPENF [chain 1 D31K] as the variant, how does the response read?
Its response is 7000 Miller units.

For chain 1 MDITELLAFSAKQGASDLHLSAGLPPMIRVDGDVRRINLPPLEHKQVHALIYDIMNDKQRKDFEEFLETDFSFEVPGVARFRVNAFNQNRGAGAVFRTIPSKVLTMEELGMGEVFKRVSDVPRGLVLVTGPTGSGKSTTLAAMLDYLNNTKYHHILTIEDPIEFVHESKKCLVNQREVHRDTLGFSEALRSALREDPDIILVGEMRDLETIRLALRAAETGHLVFGTLHTTSAAKTIDRVVDVFPAEEKAMVRSMLSESLQSVISQTLIKKIGGGRVAAHEIMIGTPAIRNLIREDKVAQMYSAIQTGGSLGMQTLDMCLKGLVAKGLISRENAREKAKIPENF [chain 1 T216R], which response is on record?
Its response is 10000 Miller units.

With chain 1 MDITELLAFSAKQGASDLHLSAGLPPMIRVDGDVRRINLPPLEHKQVHALIYDIMNDKQRKDFEEFLETDFSFEVPGVARFRVNAFNQNRGAGAVFRTIPSKVLTMEELGMGEVFKRVSDVPRGLVLVTGPTGSGKSTTLAAMLDYLNNTKYHHILTIEDPIEFVHESKKCLVNQREVHRDTLGFSEALRSALREDPDIILVGEMRDLETIRLALTAAKTGHLVFGTLHTTSAAKTIDRVVDVFPAEEKAMVRSMLSESLQSVISQTLIKKIGGGRVAAHEIMIGTPAIRNLIREDKVAQMYSAIQTGGSLGMQTLDMCLKGLVAKGLISRENAREKAKIPENF [chain 1 E219K] as the variant, how does the response read?
Its response is 8600 Miller units.

chain 1 MDITELLAFSAKQGASDLHLSAGLPPMIRVDGDVRRINLPPLEHKQVHALIYDIMNDKQRKDFEEFLETDFSFEVPGVARFRVNAFNQNRGAGAVFRTIPSKVLTMEELGMGEVFKRVSDVPRGLVLVTGPTGSGKSTTLAAMLDYLNNTKYHHILTIEDPIEFVHESKKCLVNQREVHRDTLGFSEALRSALREDPDIILVGEMRDLETIRLALTAAETGHLVFGTLHTTSAAKTIDRVVKVFPAEEKAMVRSMLSESLQSVISQTLIKKIGGGRVAAHEIMIGTPAIRNLIREDKVAQMYSAIQTGGSLGMQTLDMCLKGLVAKGLISRENAREKAKIPENF [chain 1 D242K] was tested. Which response did it give?
The response was 8000 Miller units.

How did the response turn out when chain 1 MDITELLAFSAKQGASDLHLSAGLPPMIRVDGDVRRINLPPLEHKQVHALIYDIMNDKQRKDFEEFLETDFSFEVPGVARFRVNAFNQNRGAGAVFRTIPSKVLTMEELGMGEVFKRVSDVPRGLVLVTGPTGSGKSTTLAAMLDYLNNTKYHHILTIEDPIEFVHESKKCLVNQREVHRDTLGFSEALRSALREDPDIILVGEMRDLETIRLALTAAETGHLVFGTLHTTSAAKTIDRVVDVFPAEEKAMVRSMLSESLQSVISQTLIKKIGGGRVAAHEIMIGTPAIRNLIEEDKVAQMYSAIQTGGSLGMQTLDMCLKGLVAKGLISRENAREKAKIPENF [chain 1 R294E] was run?
Its response is 8600 Miller units.

Which response does the source give for chain 1 MDITELLAFSAKQGASDLHLSAGLPPMIRVDGDVRRINLPPLEHKQVHALIYDIMNDKQRKDFEEFLETDFSFEVPGVARFRVNAFNQNRGAGAVFRTIPSKVLTMEELGMGEVFKRVSDVPRGLVLVTGPTGSGKSTTLAAMLDYLNNTKYHHILTIEDPIEFVHESKKCLVNQREVHRDTLGFSEALRSALREDPDIILVGEMRDLETIRLALTAAETGHLVFGTLATTSAAKTIDRVVDVFPAEEKAMVRSMLSESLQSVISQTLIKKIGGGRVAAHEIMIGTPAIRNLIREDKVAQMYSAIQTGGSLGMQTLDMCLKGLVAKGLISRENAREKAKIPENF [chain 1 H229A] here?
Its response is 11000 Miller units.
